Data taken from the nanobody polyreactivity screen of Harvey et al. (2022).

experiment: yeast display, Sf9 membrane polyspecificity reagent, FACS + sequencing; frameworks hold sequencing errors
How it was run: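 Sorting gates, low and high (top ~1%), were placed on anti-HA fluorescence to track expression and on streptavidin fluorescence to track reagent binding. A clone's polyreactivity label is taken from the gate it came out of. The reagent was 10% biotinylated, detergent-solubilized Sf9 membrane, applied for 1 hour at 4 °C to galactose-induced yeast display cells.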

Question: Which “polyreactivity (PSR sort gate)” value does the source give for “QVQLVESGGGLVQAGGSLRLSCAASGSIFIYYTMGWYRQAPGKEREFVASISWRGGRTYYADSVKGRFTISRDNAKNTVYLQMNSLKPEDTAVYYCAAKSRAYSYRMDYWGQGTQVTVSS” here?
Answer: high polyreactivity

Question: For “QVQLVESGGGLVQAGGSLRLSCAASGSIFKGYALGWYRQAPGKERELVAAITYSGGGTYYADSVKGRFTISRDNAKNTVYLQMNSLKPEDTAVYYCNADRYYPDDLSDGVGTYDYWGQGTQVTVSS”, which “polyreactivity (PSR sort gate)” value is on record?
Answer: low polyreactivity

Question: With “QVQLVESGGGLVQAGGSLRLSCAASGSIFKGYAMGWYRQAPGKERELVAAITGGGGSTYYADSVKGRFTISRDNAKNTVYLQMNSLKPEDTAVYYCAADARVKRYYFRKSGYWGQGTQVTVSS” as the sequence, how does the “polyreactivity (PSR sort gate)” value read?
Answer: high polyreactivity

Question: Which “polyreactivity (PSR sort gate)” value does the source give for “QVQLVESGGGLVQAGGSLRLSCAASGSIFKINAMGCYTPAPGKERELVATITRSTGTTYYADSVKGRFTNSRDTAKNSVYLQMNSLKPEDTAVYYCATDGDSNKLDYWGQGTQVTVSS” here?
Answer: low polyreactivity

Question: Which “polyreactivity (PSR sort gate)” value does the source give for “QVQLVESGGGLVQAGGSLRLSCAASGSIFKIYAMGWSRQAPGKERELVAAISRSVGSTYADSVKGRFTISRDNAKNTVYLQMNSLKPEDTAVYYCNARYKSRLYPRYDYWGQGTQVTVSS” here?
Answer: high polyreactivity

Question: With “QVQLVESGGGLVQAGGSLRLSCAASGSIFKIYAMGWYRQAPGKERELVAAISRRGSSTSYADSVKGRFTISRDNAKNTVYLQMNSLKPEDTAVYYCAARYISNPMDYWGQGTQVTVSS” as the sequence, how does the “polyreactivity (PSR sort gate)” value read?
Answer: high polyreactivity

Question: For “QVQLVESGGGLVQAGGSLRLSCAASGSIFKIYAMGWYRQAPGKERELVASITGSGGSTYYADSVKGRFTISRDNAKNTVYLQMNSLKPEDTAVYYCAADVVRSNFYGTFLYDYDYWGQGTQVTVSS”, which “polyreactivity (PSR sort gate)” value is on record?
Answer: low polyreactivity

Question: Which “polyreactivity (PSR sort gate)” value does the source give for “QVQLVESGGGLVQAGGSLRLSCAASGSIFKIYAMGWYRQAPGKERELVASITGSGGSTYYADSVKGRFTISRDNAKNTVYLQMNSLKPEDTAVYYCIADGPLDRYEYWGQGTQVTVSS” here?
Answer: low polyreactivity

Question: With “QVQLVESGGGLVQAGGSLRLSCAASGSIFKKYAMGWYRQAPGKERELVAAITRGTYYADSVKGRFTISRDNAKNTVYLQMNSVKPVDTAVYYCNREYWGRGYYRVRGEYVYWGQGTQVTVSS” as the sequence, how does the “polyreactivity (PSR sort gate)” value read?
Answer: low polyreactivity

Question: For “QVQLVESGGGLVQAGGSLRLSCAASGSIFKPYAMAWYRQAPGKERELVAAINRGGTSTYYADSVKGRFTISRDNAKNTVYLQMNSLKPEDTAVYYCAKTYTEYSVTRSGARMDYWGQGAQVTVSS”, which “polyreactivity (PSR sort gate)” value is on record?
Answer: low polyreactivity

Question: For “QVQLVESGGGLVQAGGSLRLSCAASGSIFKPYAMGWYRQAPGKERELVAAINRGGTSTYYADSVKGRFTISRDNAKNTVYFQMNSLKPEDTAVYYCAAPNRYSVPMYYWGQGTQVTVSS”, which “polyreactivity (PSR sort gate)” value is on record?
Answer: low polyreactivity

Question: With “QVQLVESGGGLVQAGGSLRLSCAASGSIFKPYAMGWYRQAPGKERELVAAISYSGGSTYYADSVKGRFTISRDNAKNSVYLQMNSLKPEDTAVYYCAKRSTSRGYDYWGQGTQVTVSS” as the sequence, how does the “polyreactivity (PSR sort gate)” value read?
Answer: high polyreactivity

Question: Which “polyreactivity (PSR sort gate)” value does the source give for “QVQLVESGGGLVQAGGSLRLSCAASGSIFKQNDMGWYRHAPGKERELVAAITYTGGSTYYADSVKGRFTISRDNAKNTVYLQMNSLKPEDTAVYYCAARITSPRARSRGFYYWGQGTQVTVSS” here?
Answer: high polyreactivity

Question: For “QVQLVESGGGLVQAGGSLRLSCAASGSIFKQYDMGWYRQAPGKERDLVAAITASDGSTYYADSVKGRFTISRDNAMNTVYLQMNSLKPEDTAVYFCAADGGVAWGYGYCGQGTQVTVSS”, which “polyreactivity (PSR sort gate)” value is on record?
Answer: low polyreactivity

Question: Which “polyreactivity (PSR sort gate)” value does the source give for “QVQLVESGGGLVQAGGSLRLSCAASGSIFKQYVMGWYRQAPGKERELVAAISRGGNTYYADSVKGRFTISRDNAKNTVYLQMNSLKPEDTAVYYCAAVYGGRAVPYYSWGQGTQVTVSS” here?
Answer: high polyreactivity

Question: Which “polyreactivity (PSR sort gate)” value does the source give for “QVQLVESGGGLVQAGGSLRLSCAASGSIFKRNAMGWYRQAPGKERELVASISWSGTRTYYADSVKGRFTISRDKAKNTVYFQMNSLKPEDTAVYYCARRIYGGHPCQSTQGDFYYWGQGTQVTVSS” here?
Answer: high polyreactivity

Question: For “QVQLVESGGGLVQAGGSLRLSCAASGSIFKRYAMGWYRQAPGKERELVAAISWSGGNTYYADSVKGRFTISRDNAKNTVYLQMNSLKPEDTAVYYCAALHRVGYSEYGYWGQGTQVTVSS”, which “polyreactivity (PSR sort gate)” value is on record?
Answer: high polyreactivity

Question: Which “polyreactivity (PSR sort gate)” value does the source give for “QVQLVESGGGLVQAGGSLRLSCAASGSIFKRYAMGWYRQAPGKERELVAGITSSGGSTYYADSVKGRFTISPDNAKNTVYLQMNSLKPEDTAVYYCAAPYSSYKVRPYDYWGQGTQVTVSS” here?
Answer: low polyreactivity

Question: With “QVQLVESGGGLVQAGGSLRLSCAASGSIFKSYAMGWYRHAPWKERELVASISSRGSSTNYADSVKGRFTISRDNAKITVYLQMNSLKPEDTEGYYCAAEVYRGKYWSTYRGGDYWGQGTQVTVSS” as the sequence, how does the “polyreactivity (PSR sort gate)” value read?
Answer: high polyreactivity

Question: With “QVQLVESGGGLVQAGGSLRLSCAASGSIFKSYAMGWYRQPPGKERELVAAISWSGTSTYYADSVKGRFTISRDNAKNTVYLLMNSLKPEDTAVYYCNAVSVSSKRSDYWGQGTQVTVSS” as the sequence, how does the “polyreactivity (PSR sort gate)” value read?
Answer: low polyreactivity

Question: Which “polyreactivity (PSR sort gate)” value does the source give for “QVQLVESGGGLVQAGGSLRLSCAASGSIFKTNAMGWYRQAPGKERELVAGISNGGSTNYADSVKGRFTISRDNAKNTVYLQMNSLKPEDTAVYYCATDFAVTKMEYWGQGTQVTVSS” here?
Answer: low polyreactivity

Question: For “QVQLVESGGGLVQAGGSLRLSCAASGSIFKTYAMGWYRQAPGKERELVAAISSGGSTYYADSVKGRFTISRDNAKNTVYLELNSLKPEDTAVYYCAADPWGAFVSFASYYYWGQGTQVTVSS”, which “polyreactivity (PSR sort gate)” value is on record?
Answer: low polyreactivity

Question: Which “polyreactivity (PSR sort gate)” value does the source give for “QVQLVESGGGLVQAGGSLRLSCAASGSIFKYNAMGWYRQAPGKERELVAAITIGGRTYYADSVKGRFTISRDNAKNTVYLQMNSLKPEDTAVYYCAGVVRALTIKYGYWGQGTQVTVSS” here?
Answer: high polyreactivity

Question: Which “polyreactivity (PSR sort gate)” value does the source give for “QVQLVESGGGLVQAGGSLRLSCAASGSIFKYNAMGWYRQAPGKERELVAAITNGGSTYADSVKGRFTISRDNAKNTVYLQMNSLKPEDTAVYYCNFYGQDGVNVTYDYWGQGTQVTVSS” here?
Answer: low polyreactivity

Question: Which “polyreactivity (PSR sort gate)” value does the source give for “QVQLVESGGGLVQAGGSLRLSCAASGSIFKYNTMGWYRQAPGKERELVAAIRYSGGRTYYADSVKGRFTISRDYAKNTVYLQMNSLKPEDTAVYYCAAGSIQYRPTYTGDYWGQGTQVTVSS” here?
Answer: high polyreactivity

Question: For “QVQLVESGGGLVQAGGSLRLSCAASGSIFKYYAKGWYRQAPGKERELVAAITIGGNTNYADSVKGRFTISRDNAKNTVYLQMNSLKPEDTAVYYCATGGYYSAIVYGGYDYWGQGTQVTVSS”, which “polyreactivity (PSR sort gate)” value is on record?
Answer: low polyreactivity

Question: Which “polyreactivity (PSR sort gate)” value does the source give for “QVQLVESGGGLVQAGGSLRLSCAASGSIFKYYAMGSSRQAPGKERELVAAISTGGTTNYADSVKGRFTISRDNAKNTVYLQMNSLKPEDTAVYYCNRDYLVRSRYKYYYWGQGTQVTVSS” here?
Answer: low polyreactivity

Question: For “QVQLVESGGGLVQAGGSLRLSCAASGSIFKYYAMGWYRQAPGKERELVAAISTGGTTNYADYVKGRFTISRDNAKNTVYLQMNSLKPEDTAVYYCNRDYLVRSRYKYYYWGQGTQVTVSS”, which “polyreactivity (PSR sort gate)” value is on record?
Answer: low polyreactivity

Question: For “QVQLVESGGGLVQAGGSLRLSCAASGSIFKYYTMGWSRQAPGKERELVAAINSSGGSTYYADSVKGRFTISRYNAKNTVYLQMYSLKPEDTAVYYCIAVTSRRWRYELDYLGQGTQVTVSS”, which “polyreactivity (PSR sort gate)” value is on record?
Answer: high polyreactivity

Question: With “QVQLVESGGGLVQAGGSLRLSCAASGSIFKYYTMGWYRQAPGKERELVAAITYTGGRTYYADSVKGRFTISRDNAKNTVYLQMNSPKPEDTAVYYCAKDGPATVRRGYDYWGQGTQVTVSS” as the sequence, how does the “polyreactivity (PSR sort gate)” value read?
Answer: high polyreactivity

Question: For “QVQLVESGGGLVQAGGSLRLSCAASGSIFLAYAMGCYRQATAKEREFVAANSFSDGSTYYADSVKGRFTISRDNAKNTVYLQMNSLKPEDTAVYYCNKGASPDDYDYWGQGTQVTESS”, which “polyreactivity (PSR sort gate)” value is on record?
Answer: low polyreactivity

Question: With “QVQLVESGGGLVQAGGSLRLSCAASGSIFLAYDMGWYRQAPGKERELVAGITSGGTTYYADSVKGRFTISRDNAKNTVYLQMNSLKPEDTAVYYCAVEPVFIVSEVLFDYWGQGTQVTVSS” as the sequence, how does the “polyreactivity (PSR sort gate)” value read?
Answer: low polyreactivity

Question: For “QVQLVESGGGLVQAGGSLRLSCAASGSIFLAYLKGWYRQAPGKERELVAAISYRGVSTYYADSVKGRFTISRDNAKNTVYLQMTRLNPEDTAVYYFAAEHLWGAVFLYVRSTGLDYWGQGTQVTVSS”, which “polyreactivity (PSR sort gate)” value is on record?
Answer: low polyreactivity

Question: With “QVQLVESGGGLVQAGGSLRLSCAASGSIFLDYAMGWYRQAPGKERELVAANTSDGSTYYADSVKGRFTISRDKAKNTVYLQMNSLKPEDTAVYYCAVQDTSYDVQYSYGYWGQGTHVTVSS” as the sequence, how does the “polyreactivity (PSR sort gate)” value read?
Answer: low polyreactivity

Question: Which “polyreactivity (PSR sort gate)” value does the source give for “QVQLVESGGGLVQAGGSLRLSCAASGSIFLFYAMGWYRQAPGKERELVAAISYSGGRTYYADSVKGRFTISRDNAKNTVYLQMNSLNPEDTAVYYCAAVGYSSYPYRRFDYWGQGTQVTVSS” here?
Answer: high polyreactivity

Question: Which “polyreactivity (PSR sort gate)” value does the source give for “QVQLVESGGGLVQAGGSLRLSCAASGSIFLHNAMGWYRQAPGTERELVAGITSSGTSTYYADSVKGRFTISRDIAKNTVYLQMNSLKPEDTAVYYCAAYRYGSRGGYWGQGTHVTVSS” here?
Answer: high polyreactivity

Question: Which “polyreactivity (PSR sort gate)” value does the source give for “QVQLVESGGGLVQAGGSLRLSCAASGSIFLIYAMGWYRQAPGKERELVAAINYSGVRTYYADSEKGRFTISRDYAKNTLYLPMNSLKPEETAVYYCAPDATSYSYRYNYWGQGTQVTVSS” here?
Answer: high polyreactivity

Question: For “QVQLVESGGGLVQAGGSLRLSCAASGSIFLNNAMGWYRQAPGKERELVAAITRNVGSTYYADSVKGRFTISRDNAKNTVYLQMNSLKPEDTAVYYCAADRRRRYDYWGQGTQVTVSS”, which “polyreactivity (PSR sort gate)” value is on record?
Answer: low polyreactivity

Question: For “QVQLVESGGGLVQAGGSLRLSCAASGSIFLPNAMGWYRQAPGKERELVAVITGGGSTKYADSVKGRFTISRDNAKNTVYLQMNSLKPEDTAVYYCNAQSPVDPSCDYWGRGTQVTVSS”, which “polyreactivity (PSR sort gate)” value is on record?
Answer: low polyreactivity

Question: With “QVQLVESGGGLVQAGGSLRLSCAASGSIFLQYAMGWYRQAPGKERELVAAITTSGRTYYADSVKGRFTISRDNAKYTVYLQMNSLKPEDTAVYYCAATWRYGYYAYYYWGQGTQVTVSS” as the sequence, how does the “polyreactivity (PSR sort gate)” value read?
Answer: high polyreactivity

Question: With “QVQLVESGGGLVQAGGSLRLSCAASGSIFLRNAMGWYRQAPGKERALVAAISWGGRTYYADSVKGRFTISRDNAKNTVYLQMNSLKPEDTAVYYCAADGTWVRSPHFYYWGQGTQVTVSS” as the sequence, how does the “polyreactivity (PSR sort gate)” value read?
Answer: low polyreactivity

Question: With “QVQLVESGGGLVQAGGSLRLSCAASGSIFLRNAMGWYRQAPGKERELVAAISWGGRTYYADSVKGRFTISRDNAKNTVYLQLNSLKPEDRAVYYCSADGTWVRSPHFYYWGQGTQVTVSS” as the sequence, how does the “polyreactivity (PSR sort gate)” value read?
Answer: low polyreactivity

Question: With “QVQLVESGGGLVQAGGSLRLSCAASGSIFLRYAMGWYRQAPGKERELVATISKSGGSTYYADSVKGRFTISRDNAKNTVYLQMNSLKPEDTAVYYCAAGYVYFQTYYYWGQGTQVTVSS” as the sequence, how does the “polyreactivity (PSR sort gate)” value read?
Answer: high polyreactivity
